Measurements from article PMC8263624, “Asymmetric reconstruction of mammalian reovirus reveals interactions among RNA, transcriptional factor µ2 and capsid proteins” (Nature Communications, 2021).

B1: RdRp-bound nucleoside triphosphatase μ2 (enzyme)
chain: MAYIAVPAVVDSRSSEAIGLLESFGVDAGADANDVSYQDHDYVLDQLQYMLDGYEAGDVIDALVHKNWLHHSVYCLLPPKSQLLEYWKSNPSAIPDNVDRRLRKRLMLKKDLRKDDEYNQLARAFKISDVYAPLISSTTSPMTMIQNLNRGEIVYTTTDRVIGARILLYAPRKYYASTLSFTMTKCIIPFGKEVGRVPHSRFNVGTFPSIATPKCFVMSGVDIESIPNEFIKLFYQRVKSVHANILNDISPQIVSDMINRKRLRVHTPSDRRAAQLMHLPYHVKRGASHVDVYKVDVVDMLFEVVDVADGLRNVSRKLTMHTVPVCILEMLGIEIADYCIRQEDGMLTDWFLLLTMLSDGLTDRRTHCQYLMNPSSVPPDVILNISITGFINRHTIDVMPDIYDFVKPIGAVLPKGSFKSTIMRVLDSISILGIQIMPRAHVVDSDEVGEQMEPTFEQAVMEIYKGIAGVDSLDDLIKWVLNSDLIPHDDRLGQLFQAFLPLAKDLLAPMARKFYDNSMSEGRLLTFAHADSELLNANYFGHLLRLKIPYITEVNLMIRKNREGGELFQLVLSYLYKMYATSAQPKWFGSLLRLLICPWLHMEKLIGEADPASTSAEIGWHIPREQLMQDGWCGCEDGFIPYVSIRAPRLVIEELMEKNWGQYHAQVIVTDQLVVGEPRRVSAKAVIKGNHLPVKLVSRFACFTLTAKYEMRLSCGHSTGRGAAYSARLAFRSDLA
notes: NTPase μ2 of mammalian reovirus serotype Dearing 3, native in the virus particle; 736 residues in all, 680 modelled; RBD 1-264, NTPase domain 265-607, CTD 608-736; also called NTPase; NTPase μ2
B2: RNA-dependent RNA polymerase (RdRp) λ3 (enzyme)
chain: MSSMILTQFGPFIESISGITDQSNDVFEDAAKAFSMFTRSDVYKALDEIPFSDDAMLPIPPTIYTKPSHDSYYYIDALNRVRRKTYQGPDDVYVPNCSIVELLEPHETLTSYGRLSEAIENRAKDGDSQARIATTYGRIAESQARQIKAPLEKFVLALLVAEAGGSLYDPVLQKYDEIPDLSHNCPLWCFREICRHISGPLPDRAPYLYLSAGVFWLMSPRMTSAIPPLLSDLVNLAILQQTAGLDPSLVKLGVQICLHAAASSSYSWFILKTKSIFPQNTLHSMYESLEGGYCPNLEWLEPRSDYKFMYMGVMPLSAKYARSAPSNDKKARELGEKYGLSSVVGELRKRTKTYVKHDFASVRYIRDAMACTSGIFLVRTPTETVLQEYTQSPEIKVPIPQKDWTGPIGEIRILKDTTSSIARYLYRTWYLAAARMAAQPRTWDPLFQAIMRSQYVTARGGSGAALRESLYAINVSLPDFKGLPVKAATKIFQAAQLANLPFSHTSVAILADTSMGLRNQVQRRPRSIMPLNVPQQQVSAPHTLTADYINYHMNLSPTSGSAVIEKVIPLGVYASSPPNQSINIDISACDASITWDFFLSVIMAAIHEGVASSSIGKPFMGVPASIVNDESVVGVRAARPISGMQNMIQHLSKLYKRGFSYRVNDSFSPGNDFTHMTTTFPSGSTATSTEHTANNSTMMETFLTVWGPEHTDDPDVLRLMKSLTIQRNYVCQGDDGLMIIDGTTAGKVNSETIQNDLELISKYGEEFGWKYDIAYDGTAEYLKLYFIFGCRIPNLSRHPIVGKERANSSAEEPWPAILDQIMGVFFNGVHDGLQWQRWIRYSWALCCAFSRQRTMIGESVGYLQYPMWSFVYWGLPLVKAFGSDPWIFSWYMPTGDLGMYSWISLIRPLMTRWMVANGYVTDRCSTVFGNADYRRCFNELKLYQGYYMAQLPRNPKKSGRAASREVREQFTQALSDYLMQNPELKSRVLRGRSEWEKYGAGIIHNPPSLFDVPHKWYQGAQEAAIATREELAEMDETLMRARRHSYSSFSKLLEAYLLVKWRMCEAREPSVDLRLPLCAGIDPLNSDPFLKMVSVGPMLQSTRKYFAQTLFMAKTVSGLDVNAIDSALLRLRTLGADKKALTAQLLMVGLQESEADALAGKIMLQDVNTVQLARVVNLAVPDTWMSLDFDSMFKHHVKLLPKDGRHLNTDIPPRMGWLRAILRFLGAGMVMTATGVAVDIYLEDIHGGGRSLGQRFMTWMRQEGRSA
notes: RdRp λ3 of mammalian reovirus serotype Dearing 3, native in the virus particle; domains stated as residues 1-386, 387-556 and 595-690, 557-594 and 691-792, 793-901, 902-1267; Part of the transcribing enzyme complex (TEC) with µ2; ten TECs in each particle

Legend:
[1] = target: T1, capsid shell protein (CSP) λ1 (Mammalian reovirus serotype Dearing 3, UniProt P15024 1-1275); assay: cryo-EM structure; asymmetric (C1) vertex sub-particle reconstructions of native MRV ISVP at 3.3 Å, asymmetric full ISVP at 4.3 Å; isolated virus particles in PBS pH 7.4; proteins assembled in the particle, in situ; settings: both partners purified
T1 construct: capsid shell protein λ1 of mammalian reovirus serotype Dearing 3, native in the virus particle; 120 copies in each particle as λ1A/λ1B dimers; five pairs (1-5) around each vertex; also called λ1A; λ1B
T1 sequence: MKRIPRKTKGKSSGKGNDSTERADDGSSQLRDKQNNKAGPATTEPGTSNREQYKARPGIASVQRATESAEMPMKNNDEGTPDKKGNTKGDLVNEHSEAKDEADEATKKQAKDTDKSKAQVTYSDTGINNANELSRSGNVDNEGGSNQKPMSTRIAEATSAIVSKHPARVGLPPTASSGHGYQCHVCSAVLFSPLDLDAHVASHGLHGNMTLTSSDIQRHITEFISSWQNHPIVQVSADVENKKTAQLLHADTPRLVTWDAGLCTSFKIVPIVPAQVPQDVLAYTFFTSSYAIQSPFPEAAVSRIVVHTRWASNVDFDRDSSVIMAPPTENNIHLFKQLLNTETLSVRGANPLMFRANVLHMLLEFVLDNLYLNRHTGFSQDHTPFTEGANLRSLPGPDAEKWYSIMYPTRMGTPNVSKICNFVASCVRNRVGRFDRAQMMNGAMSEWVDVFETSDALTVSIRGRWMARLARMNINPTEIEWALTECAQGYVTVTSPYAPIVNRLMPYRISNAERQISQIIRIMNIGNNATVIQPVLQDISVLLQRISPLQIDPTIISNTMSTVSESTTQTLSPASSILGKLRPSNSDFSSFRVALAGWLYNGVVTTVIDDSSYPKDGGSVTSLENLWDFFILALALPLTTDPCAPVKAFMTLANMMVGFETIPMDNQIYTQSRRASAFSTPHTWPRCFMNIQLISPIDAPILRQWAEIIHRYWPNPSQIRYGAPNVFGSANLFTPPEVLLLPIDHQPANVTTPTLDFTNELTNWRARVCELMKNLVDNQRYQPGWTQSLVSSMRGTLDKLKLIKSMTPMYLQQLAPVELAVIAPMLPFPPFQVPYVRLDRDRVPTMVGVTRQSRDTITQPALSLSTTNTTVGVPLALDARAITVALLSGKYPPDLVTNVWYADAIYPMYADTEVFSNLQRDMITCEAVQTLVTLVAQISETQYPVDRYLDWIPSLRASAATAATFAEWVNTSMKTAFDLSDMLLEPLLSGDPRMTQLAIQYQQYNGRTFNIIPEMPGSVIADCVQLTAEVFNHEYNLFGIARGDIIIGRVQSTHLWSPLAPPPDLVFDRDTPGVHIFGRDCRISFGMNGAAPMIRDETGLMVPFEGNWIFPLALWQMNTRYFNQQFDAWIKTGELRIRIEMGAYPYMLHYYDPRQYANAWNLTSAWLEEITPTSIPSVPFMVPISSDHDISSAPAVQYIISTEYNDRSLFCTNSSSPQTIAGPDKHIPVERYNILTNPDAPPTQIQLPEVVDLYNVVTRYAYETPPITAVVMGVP

[2] = target: B2; assay: as above; settings: both partners purified

Binder | binding result [1] | binding result [2]
B1 | binds | binds
B2 | binds | –
